Measurements: patent CN111995685A (SHANGHAI INST MATERIA MEDICA CAS; UNIV XIAMEN, dated 2020)
One block for each binder: values may come before it.

Key:
抗原人源PD-1蛋白 [1] = target: T1, 抗原人源PD-1蛋白 (human, UniProt Q15116 25-167, limits assumed); assay: ELISA (binding and PD-L1 blocking) and BLI with PD-1 antigen, IgG format
T1 construct: The construct is not described; also called 抗原PD-1; 抗原PD-1蛋白

抗原人源PD-1蛋白 [2] = target: T1, 抗原人源PD-1蛋白; assay: ELISA of humanised Fab phage clones on PD-1 antigen

T1 sequence (Q15116 25-167 limits assumed): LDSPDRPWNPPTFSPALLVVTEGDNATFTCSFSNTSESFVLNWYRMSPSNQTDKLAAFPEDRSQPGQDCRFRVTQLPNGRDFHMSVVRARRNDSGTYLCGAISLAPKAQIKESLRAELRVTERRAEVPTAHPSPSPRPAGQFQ

binding result (抗原人源PD-1蛋白 [1]): binds
B1: T16# (antibody, V domains shown)
VH: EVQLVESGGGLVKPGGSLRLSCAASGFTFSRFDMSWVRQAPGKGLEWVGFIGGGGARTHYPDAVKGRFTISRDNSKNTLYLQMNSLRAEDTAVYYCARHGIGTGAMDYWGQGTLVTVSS
VL: ETTLTQSPAFMSATPGDKVNISCRASKSVDNYGYSFMHWYQQKPGQAPRLLIYRSANLASGVPDRFSGSGSGTDFTLKISRVEAEDVGVYYCQQSNEDPTFGGGTKLEIK
notes: also called 抗PD-1单抗T16#

binding result (抗原人源PD-1蛋白 [2]): binds
B2: T1# (antibody, V domains shown)
VH: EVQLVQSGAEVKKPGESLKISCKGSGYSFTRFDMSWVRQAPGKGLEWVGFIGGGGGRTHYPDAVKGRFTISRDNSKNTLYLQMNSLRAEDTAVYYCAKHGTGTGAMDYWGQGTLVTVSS
VL: EIVLTQSPGTLSLSPGERATLSCRASKSVDNYGYSFMHWYQQKPGQAPRLLIYRSANLASGVPSRFSGSGSGTDFTLTINSLEAEDAATYYCQQSNEDPTFGGGTKVEIK
notes: also called 抗PD-1单抗T1#; 人源化PD-1抗体T1#

binding result (抗原人源PD-1蛋白 [1]): binds
B3: T82# (antibody, V domains shown)
VH: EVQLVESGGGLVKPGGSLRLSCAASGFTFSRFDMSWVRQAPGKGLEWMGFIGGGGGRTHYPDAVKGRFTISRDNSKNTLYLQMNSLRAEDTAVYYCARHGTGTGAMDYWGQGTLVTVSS
VL: DIQMTQSPSTLSASVGDRVTISCRASKSVDNYGYSFMHWYQQKPGQAPRLLIYRSANLASGVPDRFSGSGSGTDFTLTISSLQAEDVAVYYCQQSNEDPTFGGGTKLEIK
notes: also called 抗PD-1单抗T82#
